In general, pKd refers to the negative decadic logarithm of the Kd, by convention in mol/L. What is called koff is the first-order rate constant of dissociation. In general, kon refers to the second-order rate constant of association.

pKd: −log10 of the molar value.

Assay [1] concerns the target murine FcRn complex (Fcgrt and beta-2 microglobulin), recombinant (mouse) (UniProt Q61559). The assay is described as follows: binding to mFcRn at pH 7.4 (FIG. 2D).
In assay [2] the target is human FcRn complex (FCGRT and beta-2 microglobulin), recombinant, purified (human) (UniProt P55899). The assay is described as follows: SPR, protein L capture, pH 6, kinetic. (In general: In SPR one partner is held on a chip, and binding of the other changes the refractive index at the surface.)
The target in assay [3] is murine FcRn complex (Fcgrt and beta-2 microglobulin), recombinant (mouse) (UniProt Q61559). Put plainly: binding to mFcRn at pH 6.0 (FIG. 2D).
In assay [4] the target is human FcRn (FCGRT and beta-2 microglobulin) expressed on MDCK II cells (human) (UniProt P55899). Put plainly: cell-based or functional assay.
human FcRn (FCGRT and beta-2 microglobulin) expressed on MDCK II cells (human), sequence (P55899 24-365, chain 1 of 2): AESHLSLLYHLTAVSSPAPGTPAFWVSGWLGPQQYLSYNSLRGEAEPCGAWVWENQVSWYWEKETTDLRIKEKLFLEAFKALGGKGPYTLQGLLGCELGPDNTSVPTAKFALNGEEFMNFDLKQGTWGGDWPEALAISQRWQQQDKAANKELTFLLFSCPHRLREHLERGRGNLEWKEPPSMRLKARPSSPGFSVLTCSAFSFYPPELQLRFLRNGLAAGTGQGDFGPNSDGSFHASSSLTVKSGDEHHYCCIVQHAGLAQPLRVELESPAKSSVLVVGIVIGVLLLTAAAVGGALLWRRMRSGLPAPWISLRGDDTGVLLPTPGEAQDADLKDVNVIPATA
human FcRn (FCGRT and beta-2 microglobulin) expressed on MDCK II cells (human), sequence (P61769 21-119, chain 2 of 2, further chain): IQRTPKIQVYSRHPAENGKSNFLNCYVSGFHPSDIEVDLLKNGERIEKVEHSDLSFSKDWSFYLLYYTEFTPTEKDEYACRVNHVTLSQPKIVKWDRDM

human FcRn complex (FCGRT and beta-2 microglobulin), recombinant, purified (human), sequence (P55899 24-297 limits assumed, chain 1 of 2): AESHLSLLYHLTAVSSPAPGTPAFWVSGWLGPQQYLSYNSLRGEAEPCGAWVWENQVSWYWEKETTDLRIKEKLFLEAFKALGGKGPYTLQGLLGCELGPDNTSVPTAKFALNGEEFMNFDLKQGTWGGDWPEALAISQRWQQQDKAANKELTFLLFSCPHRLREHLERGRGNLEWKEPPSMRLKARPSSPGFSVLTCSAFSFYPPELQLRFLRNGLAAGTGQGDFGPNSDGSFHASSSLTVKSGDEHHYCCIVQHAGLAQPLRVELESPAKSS
human FcRn complex (FCGRT and beta-2 microglobulin), recombinant, purified (human), sequence (P61769 21-119 limits assumed, chain 2 of 2, further chain): as the sequence (P61769 21-119, chain 2 of 2, further chain) above
murine FcRn complex (Fcgrt and beta-2 microglobulin), recombinant (mouse), sequence (Q61559 22-297, one chain of several): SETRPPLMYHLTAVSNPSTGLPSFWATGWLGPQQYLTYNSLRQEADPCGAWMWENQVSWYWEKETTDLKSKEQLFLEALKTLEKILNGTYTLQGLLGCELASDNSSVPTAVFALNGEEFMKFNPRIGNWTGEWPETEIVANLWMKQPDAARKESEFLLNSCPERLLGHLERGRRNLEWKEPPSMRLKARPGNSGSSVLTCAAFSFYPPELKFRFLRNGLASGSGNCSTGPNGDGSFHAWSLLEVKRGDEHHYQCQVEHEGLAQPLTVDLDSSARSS

“hIgG1 antibody comprising modified Fc M252Y/S254T/T256E (YTE)”: the fold improvement of binding over wild-type hIgG1 in assay [1] is 10 fold. In addition, in assay [2], the pKd was 6.81, the koff was 0.0635 s⁻¹ and the kon was determined as 414000 M⁻¹ s⁻¹. Further, the fold improvement of binding over wild-type hIgG1 in assay [3] is 10 fold. In assay [4], the Transcytosis Normalized to WT (normalized to WT) came out at 1.9.

The values above are taken from patent US20220033520A1.
